Laboratory results taken from the supplement of paper PMC12764529.
± gives the half width of the 95% confidence interval.

How the values were obtained:
[1] = folding stability dG unfold from trypsin proteolysis; higher = more stable
In short: (§1)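 Sequencing followed digestion of designed mini-proteins with trypsin and chymotrypsin, each at 11 concentrations in threefold dilutions together with a no-protease condition. The mini-proteins were under 80 residues, had no cysteine, sat in a PA-tagged cDNA display construct, and were kept only if AlphaFold2 dimer inter-PAE was above 15. From the counts, Bayesian fitting gave K50, and unfolding free energy was derived against a sequence-predicted unfolded-state K50 and a shared folded-state K50, per protease or combined.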

[2] = folding stability dG unfold from chymotrypsin proteolysis; higher = more stable
In short: as §1

[3] = folding stability dG unfold (combined trypsin and chymotrypsin); higher = more stable
In short: as §1

Sequence	folding stability dG unfold [1]	folding stability dG unfold [2]	folding stability dG unfold [3]
SAGGSAGGMVVGILTITDPATGSSETLVIPMPSEEEAVERAKELAEELEAKKGKIVKVEIRPRPSAGGSAGG [r6_787_JUSTAS]	1.39 ± 0.064 kcal/mol	1.5 ± 0.088 kcal/mol	1.32 ± 0.19 kcal/mol
SAGGSAGGMVYKIRDKETGKVYEVTIDEETNEITVYDVKTGKPVKTVNMTIEELKEAGYEVEPVSAGGSAGG [r6_831_TrROS_Hall]	3.61 ± 0.16 kcal/mol	3.27 ± 0.034 kcal/mol	3.4 ± 0.2 kcal/mol
SAGGSAGGMYTVIEEEFTFPPSNPDVVIEVEYPDLPDSYTITQSTFPEGDTYHVRVTITVPPNLSAGGSAGG [r6_482_JUSTAS]	0.314 ± 0.089 kcal/mol	0.762 ± 0.1 kcal/mol	0.605 ± 0.076 kcal/mol
SAGGSAGGMYVKIKVTMTADELKKLFPNIKKGEKVTVELVIKVEKAPPVKVEKKKEKKVEVKLKSAGGSAGG [r6_211_TrROS_Hall]	0.661 ± 0.062 kcal/mol	2.21 ± 0.041 kcal/mol	1.74 ± 0.14 kcal/mol
SAGGSAGGNTIMIPLPPNMPLDEVAKELMDAFPDYPIKDVEYERYGDRPMVTVRFPDGWKITIWSAGGSAGG [r6_492_TrROS]	0.543 ± 0.034 kcal/mol	0.818 ± 0.22 kcal/mol	0.838 ± 0.12 kcal/mol
SAGGSAGGNVILVETGPDGRARVLVFDPETGKVTEYEVPADDLDAIEAIAADKVDLVIVRPVGPSAGGSAGG [r6_639_TrMRF]	1.75 ± 0.059 kcal/mol	2.23 ± 0.028 kcal/mol	2.07 ± 0.11 kcal/mol
SAGGSAGGNWKVEIWPNGEQQEYTIDEIKKQLKNDIPPNYMIRVKGSGKWIPVRELLKEAGIPLSAGGSAGG [r6_937_TrROS]	0.382 ± 0.077 kcal/mol	0.793 ± 0.11 kcal/mol	0.691 ± 0.076 kcal/mol
SAGGSAGGPEIEVRFPDGWYVKITVERPEDGKVTVKVEVYHPDPNGKPIPPETAKNLAKEFLNKSAGGSAGG [r6_235_TrROS]	0.945 ± 0.075 kcal/mol	0.294 ± 0.12 kcal/mol	0.67 ± 0.11 kcal/mol
SAGGSAGGPIKDSKGKFIVTFEFPNGLKKKFEVENIKNPEIEFNFNGKKVKTKIIEIKKGDESKSAGGSAGG [r6_575_TrMRF]	-0.117 ± 0.12 kcal/mol	-0.004 ± 0.21 kcal/mol	0.0149 ± 0.12 kcal/mol
SAGGSAGGPIVIKVKSLEEAKELVEKLAKELTPENVKVEIKEVFEPENSYYVVIEIKTASPEEESAGGSAGG [r6_72_TrMRF]	2.85 ± 0.14 kcal/mol	2.51 ± 0.097 kcal/mol	2.65 ± 0.22 kcal/mol
SAGGSAGGPIVLKFPSPEDLEKAIEIATAHGYEIELNPESGTLVINATGPMLEEFKKIPGLEISSAGGSAGG [r6_724_TrMRF]	2.73 ± 0.12 kcal/mol	2.66 ± 0.041 kcal/mol	2.72 ± 0.092 kcal/mol
SAGGSAGGPKEKKWYVMVHITWRDDGKERPRHFMFKSPEQVIEALEEQLPPDNIEIDVAVFPYKSAGGSAGG [r6_114_TrROS]	1.63 ± 0.034 kcal/mol	2.95 ± 0.053 kcal/mol	2.33 ± 0.086 kcal/mol
SAGGSAGGPKHVEIVITPDLRKEIEENQKEGDPPTLMEIAKEIAREFRANGMPVDIKILPPEDFSAGGSAGG [r6_815_TrROS]	0.216 ± 0.07 kcal/mol	0.29 ± 0.31 kcal/mol	0.452 ± 0.23 kcal/mol
SAGGSAGGPLKVELVKAEILPGNKIIRVYRAELPTETYLAVIELHLNPDGEILSAKIKVYPLPESAGGSAGG [r6_19_TrMRF]	2.85 ± 0.14 kcal/mol	3.06 ± 0.052 kcal/mol	3.06 ± 0.14 kcal/mol
SAGGSAGGPLPLEELRRLLESRPDYEILSVEDESPDYVVVTVRFPFPLPSDEERTLRLRLRFPLSAGGSAGG [r6_152_TrMRF]	2.23 ± 0.056 kcal/mol	3.374 ± 0.031 kcal/mol	3.08 ± 0.094 kcal/mol
SAGGSAGGPLVVGRGTFPDGFTADAELRVPDSSETFYRTIEPGASLDEIPENYEVANITLSPAGSAGGSAGG [r6_758_TrMRF]	-0.289 ± 0.12 kcal/mol	-0.176 ± 0.13 kcal/mol	-0.162 ± 0.13 kcal/mol
SAGGSAGGPNIEIMSMFKHPNGTIVIFIRTPEGRYIVIKIPPPGNIKIVGVYPLPPGDPLLERLSAGGSAGG [r6_715_TrROS]	2.43 ± 0.17 kcal/mol	3.14 ± 0.12 kcal/mol	3.06 ± 0.2 kcal/mol
SAGGSAGGPNWVKFPIMFEMPIPVVPKMEKDPDGENRMEPVKPVRISIMIELTLPPDDLEDLIKSAGGSAGG [r6_120_TrROS]	1.41 ± 0.083 kcal/mol	2.28 ± 0.11 kcal/mol	1.83 ± 0.18 kcal/mol
SAGGSAGGPPPAKVVEVREVTLEDLENLDKLLVVFPDGKVYTSPEALRKWLEEGKPVLVAVFEGSAGGSAGG [r6_827_TrMRF]	1.6 ± 0.084 kcal/mol	1.96 ± 0.049 kcal/mol	1.88 ± 0.15 kcal/mol
SAGGSAGGPPPYYMVEIEIERRNPKNGKKQKFPVTVIMPPKEAEKIKDELEEWGYEIKVDVHPISAGGSAGG [r6_97_TrROS]	0.856 ± 0.15 kcal/mol	0.393 ± 0.066 kcal/mol	0.74 ± 0.18 kcal/mol
SAGGSAGGPVVISVPALVKLAKELGLKLVFFPETKTVILEHPDSFLIATIDSKGNVSIAPALPESAGGSAGG [r6_155_TrMRF]	2.69 ± 0.09 kcal/mol	2.59 ± 0.049 kcal/mol	2.64 ± 0.091 kcal/mol

Sequence	folding stability dG unfold [1]	folding stability dG unfold [2]	folding stability dG unfold [3]
SAGGSAGGPYYIMVDIEMYNPQDGKERNFTLMIPVPPGDLPKIKEELLSAGFPIKIKNISIMPPSAGGSAGG [r6_151_TrROS]	2.62 ± 0.14 kcal/mol	2.88 ± 0.062 kcal/mol	2.74 ± 0.18 kcal/mol
SAGGSAGGRIPLEDIEIVEVSEETLPNTEKVYHVLVKLPEGYIEATFLPNTGLEEAVERLLALESAGGSAGG [r6_232_TrMRF]	0.963 ± 0.053 kcal/mol	0.493 ± 0.097 kcal/mol	0.788 ± 0.067 kcal/mol
SAGGSAGGRLEPITEEEALELARLLAEYIRRLFPGDPRPHLVVVPILVPTPEDGYRLFLAVIAESAGGSAGG [r6_844_TrMRF]	2.74 ± 0.079 kcal/mol	4.1 ± 0.039 kcal/mol	3.73 ± 0.067 kcal/mol
SAGGSAGGRLLLVKITLPDGEEITIVLEFESEEEARAAAEALLPPGAKVEVRELSEEELEALLKSAGGSAGG [r6_267_TrROS_Hall]	3.09 ± 0.049 kcal/mol	3.37 ± 0.044 kcal/mol	3.31 ± 0.052 kcal/mol
SAGGSAGGRVRIHYNPEDGYIMITFPRNNPEEIAKEILEAFNIKDVNIQVDPEEGWVSIMIKIDSAGGSAGG [r6_662_TrROS]	2.95 ± 0.25 kcal/mol	1.26 ± 0.1 kcal/mol	2.17 ± 0.41 kcal/mol
SAGGSAGGSAAEASVVTFPGDLTAEVTKLPDGSYAVTVTFPENPGATATLTRTPDSVTVTPSAGGSAGGSAG [r3_170_JUSTAS]	0.0476 ± 0.058 kcal/mol	-1.1 ± 0.56 kcal/mol	-0.342 ± 0.17 kcal/mol
SAGGSAGGSAAKIELEDGTLRITLTRTVRDPATGETHTETLTLEIKLPPAPPPVVVVSPEDLSAGGSAGGSA [r18_501_TrROS_Hall]	2.32 ± 0.072 kcal/mol	3.24 ± 0.037 kcal/mol	2.88 ± 0.092 kcal/mol
SAGGSAGGSAAPDEKLKITVELVDPNNGKRIEEKEYPNMTIEEVKKEAEEKGLKIVKIEVSSAGGSAGGSAG [r3_423_JUSTAS]	-0.382 ± 0.083 kcal/mol	-0.116 ± 0.061 kcal/mol	-0.173 ± 0.29 kcal/mol
SAGGSAGGSAAPLYELEILSVDLDPDNPTVYVLARIPGTSNYVLITFPPNGDVYAYASPLPSAGGSAGGSAG [r3_294_TrMRF]	1.95 ± 0.06 kcal/mol	2.37 ± 0.06 kcal/mol	2.25 ± 0.17 kcal/mol
SAGGSAGGSAAVPVSETPLGTLPDGRRVRLRRYRDPDGNLYTFLEVEPLPRPLSPADLEKAAASAGGSAGGS [r12_775_TrMRF]	0.492 ± 0.19 kcal/mol	2.06 ± 0.12 kcal/mol	1.68 ± 0.1 kcal/mol
SAGGSAGGSADEIPIMIKIKYKNGGKKREHTITFRVEPNMPNLDEFAKELANNGRIEEVEISAGGSAGGSAG [r3_30_TrROS]	0.629 ± 0.14 kcal/mol	-0.282 ± 0.59 kcal/mol	0.28 ± 0.25 kcal/mol
SAGGSAGGSADEPETTTTTTTTTTTKKPAPPAPPKTITLDVEVNGKTLRLTFTSKEALDALSAGGSAGGSAG [r3_426_TrROS_Hall]	0.931 ± 0.021 kcal/mol	0.945 ± 0.1 kcal/mol	1.03 ± 0.15 kcal/mol
SAGGSAGGSADGNTPVEVTITLTDPKTGAVTTVPVVLPTSVSVEEVAAELAAKFGLTTVTVTSAGGSAGGSA [r18_58_JUSTAS]	1.06 ± 0.027 kcal/mol	0.521 ± 0.04 kcal/mol	0.864 ± 0.037 kcal/mol
SAGGSAGGSADKIEIRVKLKIPNTDEILTFPIWVDPENPEEVAKAIAAWLEKNGYEIESFEGSAGGSAGGSA [r18_3_TrMRF]	3.53 ± 0.23 kcal/mol	4.14 ± 0.15 kcal/mol	3.98 ± 0.16 kcal/mol
SAGGSAGGSADKIPVKIKVKLKDGDKEYEVTVTVTLDVNDPNLDAFAKELASSGKIEEVEASAGGSAGGSAG [r3_30_TrMRF]	0.877 ± 0.072 kcal/mol	1.03 ± 0.15 kcal/mol	0.973 ± 0.19 kcal/mol
SAGGSAGGSADNPDDKKKQKPKPEIKVKVEWVVIPNGFLIFEITIAGGITLTIIIPFPPNMFSAGGSAGGSA [r18_192_TrROS]	2 ± 0.058 kcal/mol	3.09 ± 0.035 kcal/mol	2.84 ± 0.16 kcal/mol
SAGGSAGGSADPNAFPITIFTFKMEIEDVEKTPNGQPELRYKMEVVEIRPIWLPPDDLEDLSAGGSAGGSAG [r3_121_TrROS]	3 ± 0.16 kcal/mol	4.39 ± 0.097 kcal/mol	3.79 ± 0.15 kcal/mol
SAGGSAGGSAEEEEMPVEELVRRKAREVEEAFPGLRGERRITVTVTLPEGETWTAELVLPLSAGGSAGGSAG [r3_64_TrMRF]	0.19 ± 0.19 kcal/mol	0.502 ± 0.18 kcal/mol	0.507 ± 0.13 kcal/mol
SAGGSAGGSAEELVKYLAKEHGHPPGKEVTIPFDNWMIKIRYNNDGVPVGVEIKPMPPDDMSAGGSAGGSAG [r3_468_TrROS]	0.717 ± 0.025 kcal/mol	0.288 ± 0.12 kcal/mol	0.593 ± 0.098 kcal/mol
SAGGSAGGSAEKTLTVVIKVKPNKTPEEIAKEIKKKLNLPNVEIVSIEYDKETNYITIKVKVSAGGSAGGSA [r18_481_TrROS_Hall]	3.6 ± 0.086 kcal/mol	3.39 ± 0.056 kcal/mol	3.47 ± 0.12 kcal/mol
SAGGSAGGSAEPPEPEVVAVTVEITEEDGELTITVTNEDTGEKYTFTLKNVEVKPGDTLLIRSAGGSAGGSA [r18_89_TrROS_Hall]	0.402 ± 0.26 kcal/mol	1.77 ± 0.34 kcal/mol	1.21 ± 0.56 kcal/mol
